# Results taken from publication PMC7954794, “Protein context shapes the specificity of SH3 domain-mediated interactions in vivo” (Nature Communications, 2021).
# B1: Cyk3 (protein, UniProt Q07533 1-885, looked up)
# Cytokinesis protein 3: MATNLTSLKPPFKVKARYGWSGQTKGDLGFLEGDIMEVTRIAGSWFYGKLLRNKKCSGYFPHNFVILLEERLNSSTENGRQPSKIVESFEKSNKVVIPPVPSRYSDERPRPKKKLSSSMPNSPKKPVDSLTKARKAKSKEMVNEKNIYNTQSSRHHNNSAPNLPLASHSKPQVRNFEESMNNPLPPLPPLPDLDNMRKTDKRAPKKSYSANDLHMARSSREYNYYKDNQKFYDGFIPEKRYSLEEDSISSGLFSNSQYLNDSACSSENSFALMSDFSATSAGSFARHKYAQSFSDSLQRSQNANGCSTKINDSQEFGDSNASSRNGKMGDILRKIIIPKRNTNIYSSSVSSPKSPKAYPKLPDIQNLNLSATPDEARDWIAVKCHLNRARTLTKYDKHPRYMRALEENRDLILHPQDSIYNGLNTNEVKGNTKPGLVDVELAELNIEYIDKMTWKRCIRDGTMTLDSWAQTTFSARYSTVLEKLRGIYIFCTEMFALTDDNGTSDFSAEPQNLEKILYRKHCTPYELTWLFKKLANSLGITCEIVIGFLKTPSAINWEFKYNHCWLRILVNKEWRFIDVILGNVTNPIHEFVNNRKIKKAENSYFLMAPLEMIYTHIPPREFEQHIVPSIDQLSALYLPLVFPSFFKNELKLYKFSTALSFLEDSEIYECSLEIPNDVEVFASVVIPTDNEEASSAYRNMELALTQIKKQKAESGRRIALIKAVLPPNVNKGSLYIHSGVRGTQTSIANIHPLSMMVPLTHKGSNMKYEFVIKIPSESIQKIELYIVEPQSRYLFVGNEYSFEVIQSPSDGIVYSSDEGPNQNRKQPMAIKSPSGRVHELVKSDPHFPYGTWKGSIKIKEPGVWSALVIADSGIGWSVFAEWLCV
# B2: Fus1 (protein, UniProt P11710 1-512, looked up)
# Nuclear fusion protein FUS1: MVATIMQTTTTVLTTVAAMSTTLASNYISSQASSSTSVTTVTTIATSIRSTPSNLLFSNVAAQPKSSSASTIGLSIGLPIGIFCFGLLILLCYFYLKRNSVSISNPPMSATIPREEEYCRRTNWFSRLFWQSKCEDQNSYSNRDIEKYNDTQWTSGDNMSSKIQYKISKPIIPQHILTPKKTVKNPYAWSGKNISLDPKVNEMEEEKVVDAFLYTKPPNIVHIESSMPSYNDLPSQKTVSSKKTALKTSEKWSYESPLSRWFLRGSTYFKDYGLSKTSLKTPTGAPQLKQMKMLSRISKGYFNESDIMPDERSPILEYNNTPLDANDSVNNLGNTTPDSQITSYRNNNIDLITARPHSVIYGTTAQQTLETNFNDHHDCNKSTEKHELIIPTPSKPLKKRKKRRQSKMYQHLQHLSRSKPLPLTPNSKYNGEASVQLGKTYTVIQDYEPRLTDEIRISLGEKVKILATHTDGWCLVEKCNTQKGSIHVSVDDKRYLNEDRGIVPGDCLQEYD
# B3: Abp1-2 (protein, UniProt P15891 2-592, looked up)
# Actin-binding protein: ALEPIDYTTHSREIDAEYLKIVRGSDPDTTWLIISPNAKKEYEPESTGSSFHDFLQLFDETKVQYGLARVSPPGSDVEKIIIIGWCPDSAPLKTRASFAANFAAVANNLFKGYHVQVTARDEDDLDENELLMKISNAAGARYSIQTSSKQQGKASTPPVKKSFTPSKSPAPVSKKEPVKTPSPAPAAKISSRVNDNNDDDDWNEPELKERDFDQAPLKPNQSSYKPIGKIDLQKVIAEEKAKEDPRLVQKPTAAGSKIDPSSDIANLKNESKLKRDSEFNSFLGTTKPPSMTESSLKNDDDKVIKGFRNEKSPAQLWAERKAKQNSGNAETKAEAPKPEVPEDEPEGEPDVKDLKSKFEGLAASEKEEEEMENKFAPPPKKSEPTIISPKPFSKPQEPVKAEEAEQPKTDYKKIGNPLPGMHIEADNEEEPEENDDDWDDDEDEAAQPPLPSRNVASGAPVQKEEPEQEEIAPSLPSRNSIPAPKQEEAPEQAPEEEIEEEAEEAAPQLPSRSSAAPPPPPRRATPEKKPKENPWATAEYDYDAAEDNELTFVENDKIINIEFVDDDWWLGELEKDGSKGLFPSNYVSLGN
# B4: Boi2 (protein, UniProt P39969 1-1040, looked up)
# BEM1-interacting protein 2: MSNDREVPTLSQLNTTVSRDKDVSDTLSPDFDSKGSATGRDGGNFPMYIAINEYFKRMEDELDMKPGDKIKVITDDEEYKDGWYFGRNLRTNEEGLYPVVFTQKITVEKAPTLMRAKSTKRIYSPLTNEDPLLSSTFISENDSNSELPTPQPIETAASISRTANGKIERNLSLKNTMSDIDNALLEFKDDSIGPPDRFINSGRDEEHSITHETILSATDGLDVVESNSKPTTSSSTGFLNGDLENQATLINGIDTTKLNPVEAEFWSPEEITAYFIMEGYDVQSASRFQKHKISGKILLELELVHLKELDINSFGTRFEIFKEIEKIKEAIRTNGRSLNRASKTNNANIYNQLMPPANVDQRASYRGHVRKTSQSLEDLPSQQNFIPTPRNTRNSSASKHRPKSLVFDSQEANANIAPDVQIPQVVEEMAGNENLFVSPRRAPKPPSYPSPAQPPKSPLLNNTRTSPSPAQLYSWQSPTLSFSGPKRTSYIDQYSSSDSNFNSRSALPKNNQGGGKALSPIPSPTRNSVRNEDSEGKLTSSSKRNSVPYYGYAPESSSDRKSSCSSHEEEQFQETMNTFERPTSSIYADGSTIASISNDKLAHEKEGKKKPTRHSSSLSSKSKSDSRRNSSLKRSSSASRTSSFKKSSFMLSPFRQQFTDNAARSSSPEENPITSMPSEKNSSPIVDKKSSKKSRSKRRSVSAKEAEIFTETVKDDKNKRSASEAIKGETLKGKSLRQMTARPVAKKKQTSAFIEGLRSISVKEAMKDADFSGWMSKKGSGAMSTWKTRFFTLHGTRLSYFSSTTDTRERGLIDITAHRVVPAKEDDKLVSLYAASTGKGRYCFKLLPPQPGSKKGLTFTQPRTHYFAVDNKEEMRGWMAALIKTTIDIDTSVPIISSYTTPTVSLSKAQEMLAEAREETKLREQQMLENEEDEDQFLWDQQQLQQQQHDNNQGQADRTISASTQRTSDEDNTISTPNLSSANNTTIGSNGFSSPFLLASGLLSPGVARNSSMRGTEKKGKFSTEEDYFGDNSKHKTDKI
# System: Abp1 PPIs
# Experiment: DHFR-PCA of Abp1 SH3-swapped baits (Fig. 2B-D, S2C, S2F)
# Type: cell-based, Saccharomyces cerevisiae
# Details: number of interactions of Abp1 carrying the named SH3; sheet FigS2A-B
# Description: Having determined that multiple PPIs require SH3s, we asked whether the latter establish PPI specificity independently from their host proteins by swapping domains (Fig. 2A). Using the second round of genome editing, we individually replaced Abp1 SH3 with the 27 yeast SH3s and 3 human Abp1 orthologs’ SH3s (CTTN, HCLS1, and DBNL, Fig. 2B). The reintroduction of its own SH3 (Abp1SH3 in Abp1) reconstitutes almost perfectly Abp1’s interaction profile (Kendall’s τ = 0.93, Fig. 2B). […] No homologous SH3 domain fully re-establishes the normal Abp1 PPI profile (Fig. 2B and Supplementary Fig. 2C). However, we observe a significant correlation (cophenetic correlation = 0.20, p value = 0.005, Fig. 2C) between the similarity of PPI profiles (Fig. 2B) and the sequence similarity of the SH3s. […] Nonetheless, a subset of SH3-dependent PPIs is only observed with the endogenous domain. For instance, Hua2 and App1, both well-characterized partners of Abp1[14],[18],[19], are only detected when Abp1 contains its own SH3 (WT or swapped via editing). A given SH3 may therefore not be fully replaceable with other paralogous or orthologous domains. This pattern is confirmed by cellular growth phenotypic analyses (Supplementary Fig. 2D, E). PPIs, SH3 sequence similarity, and growth profiles under stress conditions are correlated (Supplementary Fig. 2D, E). This relationship is particularly clear when analyzing growth on media supplemented with hygromycin.
# The stuffing of YSC84 SH3 rendered the strain sterile and was therefore not used for this study as the assays require crosses. For genes containing two SH3s (BZZ1 and BEM1), a combination of this first stuffer with a second one ([…]) coding for a highly similar linker ([…]) was used, which allowed targeting each SH3 position independently. The two N-terminal domains of SLA1, which are separated by six nucleotides, were stuffed by a single stuffer. Cells containing pCAS were selected via the G418 resistance cassette from the plasmid on YPD plates (YPD + NAT 100 μg/ml (DHFR F[1,2] selection) + G418 200 µg/mL (Bioshop Canada)). Colonies were randomly selected and grown in YPD media without G418 to allow plasmid loss. The correct insertion of the stuffer was validated by PCR and Sanger sequencing. The SH3-swapped, -shuffled, and -mutated strains were constructed following a second CRISPR–Cas9 editing step with the same procedures. The stuffer sequences were targeted by specific gRNAs (one gRNA per stuffer) and replaced by PCR amplified specific SH3 (with 40 bp homology arms) or libraries of mutated SH3 domains for Deep Mutational Scanning (DMS) with 78 bp flanking homology regions. Validation of the SH3 domain insertions was done as we previously described except for DMS libraries (see below).
# The overall DHFR-PCA pipeline is based on Tarassov et al.[43] and the procedures have also been published as a visualized protocol. The screens were performed with robotically manipulated pin tools (BM5-SC1, S&P Robotics Inc.). First, the preys were cherry-picked from 96-well plates to omnitrays in a 384 format on YPD + HPH solid media. Plates were then combined into the 1536 format on YPD + HPH. The array was constituted of 575 preys previously shown to interact physically with at least one SH3-containing protein as reported in BioGRID V3.4.16 along with 40 negative controls. The prey array comprised a border of control strains of two rows and two columns corresponding to the PPI between LSM8-DHFR F[1,2] and CDC39-DHFR F[3]. This double border was used to remove border effects. Preys are present in duplicate at a randomized position in the 1536 array (except for YAL041W which is present four times per array). Baits were crossed with two prey plates, resulting in four independent bait–prey tests for each PPI. Baits were grown in liquid YPD + NAT and then transferred on solid YPD + NAT omnitrays. They were then replicated on YPD + NAT omnitrays in 1536 array format. […]
row,Molecule,Interactions in Abp1
1,B1,25
2,B2,50
3,B3,86
4,B4,62

# System: Abp1 (1xFLAG)
# Experiment: Western blot expression level of Abp1 SH3-swapped baits (Fig. S2A-B)
# Type: cell-based, Saccharomyces cerevisiae
# Parameters: Flag (2 bands): unit not given here
# Details: Flag signal relative to Abp1 WT (Abp1-1 to Abp1-4 = 1); sheet FigS2A-B
# Experimental: Precultures of yeast cells expressing baits fused with the DHFR F[1,2]-FLAG were grown overnight at 30 °C with agitation in synthetic complete medium. The next day, cells were expanded in synthetic complete medium to reach their exponential phase (OD600 of around 1.0), pelleted, and frozen at −80 °C. The equivalent of fifty OD600 of cells was resuspended in ice-cold yeast lysis buffer (10 mM Tris-HCl pH 7.4, 150 mM NaCl, 0.5 mM EDTA (Millipore Sigma), 1% Triton X-100 (Millipore Sigma), and one cOmplete Mini Protease Inhibitor Cocktail (Millipore Sigma) per 10 mL) with […] glass beads (Millipore Sigma) and disrupted at 4 °C by 10 cycles of 2 min vortexing and 2 min cooldown. The equivalent of […] of lysed cells was used for the immunoprecipitation of the bait proteins using FLAG-M2 agarose beads (Millipore Sigma). The beads were incubated with the cell lysates for 120 min at 4 °C with a slow rotation, followed by three washes with the yeast lysis buffer.
# Protein extracts and affinity-purified baits from yeast and human lysed cells were migrated on 10% polyacrylamide gels. The separated proteins were then transferred to nitrocellulose membranes. Validation of correct protein loading was done with ponceau staining of the membranes. Before the primary antibody incubations, membranes were blocked in 5% milk. Protein signals were detected on an Amersham Imager 600RGB (GE Healthcare) following the incubation of the membranes with the appropriate HRP-conjugated secondary antibodies and the Clarity Western ECL Substrate (Bio-Rad). The antibodies used in this study are M2-HRP (A8592, Sigma, 1/50,000), rabbit anti-FLAG (F7425, Sigma, 1/1000), PAK (SC-881, Santa Cruz, 1/200), p130cas/BCAR1 (SC-860, Santa Cruz, 1/200), actin (Cell Signaling Technology, 1/2000), anti-mouse HRP (Cell Signaling Technology, 1/10,000) and anti-rabbit HRP (Cell Signaling Technology, 1/10,000). The quantification of the WB signals was performed with the Amersham Imager 600 analysis software (GE Healthcare).
row,Molecule,Ratio Swap/WT Flag
1,B1,0.2689
2,B2,0.8195
3,B3,1
4,B4,0.9819

# Same assay, conditions: Western blot Flag signal (2 bands), Abp1 WT, SH3-deleted or SH3-swapped; sheet FigS2A-B
row,Molecule,Flag (2 bands)
1,B1,59466
2,B2,181205
3,B3,221127
4,B4,95048
